According to PMC9759335:
Like-named read-outs stand apart in the source and are kept apart here.

Assays:
[1] = EGFP fluorescence in transfected HeLa cells; conditions: glycan lost; control: P0wt-EGFP
[2] = aggregate area of transfected HeLa cells; conditions: glycan lost; control: P0wt-EGFP
[3] = HeLa adhesion assay; conditions: glycan changed form; control: untreated P0D61N cells
[4] = confocal EGFP imaging of HeLa cells; conditions: glycan changed form; control: untreated cells, same construct

P0 D61N (Myelin Protein Zero mutant): 750 μM N-butyl-deoxynojirimycin (NB-DNJ) on HeLa cells expressing D61N
localisation_or_trafficking (N-glycosylation at N61): increases

P0 D109N (Myelin Protein Zero mutant): D109N
localisation_or_trafficking (N-glycosylation at N109): decreases

P0 D61N (Myelin Protein Zero mutant): D61N
localisation_or_trafficking (N-glycosylation at N61): decreases

P0 D61N (mouse Mpz knock-in mutant): D61N (MpzD61N/+ mice)
expression_or_secretion (N-glycosylation at N61): no change

P0 D61N (mouse Mpz knock-in mutant): D61N (MpzD61N/− mice)
localisation_or_trafficking (N-glycosylation at N61): changes

P0 K138N (Myelin Protein Zero mutant): K138N
localisation_or_trafficking (N-glycosylation at N138): decreases

P0 D118N (Myelin Protein Zero mutant): D118N
localisation_or_trafficking (N-glycosylation at N118): no change

B1: P0 (Myelin Protein Zero): N122S (protein)
parent chain: MAPGAPSSSPSPILAVLLFSSLVLSPAQAIVVYTDREVHGAVGSRVTLHCSFWSSEWVSDDISFTWRYQPEGGRDAISIFHYAKGQPYIDEVGTFKERIQWVGDPRWKDGSIVIHNLDYSDNGTFTCDVKNPPDIVGKTSQVTLYVFEKVPTRYGVVLGAVIGGVLGVVLLLLLLFYVVRYCWLRRQAALQRRLSAMEKGKLHKPGKDASKRGRQTPVLYAMLDHSRSTKAVSEKKAKGLGESRKDKK
localisation_or_trafficking [1]: no change
other: homophilic cell adhesion, percent_of_wt [2]: no change

B2: P0 (Myelin Protein Zero): 750 μM NB-DNJ on P0D61N (protein)
parent chain: B1 parent chain
other: homophilic cell adhesion [3]: increases

B3: P0 (Myelin Protein Zero): 750 μM NB-DNJ on P0wt (protein)
parent chain: B1 parent chain
localisation_or_trafficking [4]: no change

B4: P0 (Myelin Protein Zero): T124M (protein)
parent chain: B1 parent chain
localisation_or_trafficking [1]: no change
other: homophilic cell adhesion, percent_of_wt [2]: no change

B5: P0 (Myelin Protein Zero): T124A (protein)
parent chain: B1 parent chain
localisation_or_trafficking [1]: no change
other: homophilic cell adhesion, percent_of_wt [2]: no change

B6: P0 (Myelin Protein Zero): T124K (protein)
parent chain: B1 parent chain
localisation_or_trafficking [1]: no change
